Source: the supplement of paper PMC12458215
± gives the uncertainty stated by the source.

Tested on: HEK293T
Experiment: plasma membrane surface immunostaining intensity (anti-HA, deep receptor scanning) (arbitrary fluorescence units); higher = higher plasma membrane expression

| Sequence | plasma membrane surface immunostaining intensity (GPCR class: A (Olfactory)) | further results |
| --- | --- | --- |
| MGTDNQTWVSEFILLGLSSDWDTRVSLFVLFLVMYVVTVLGNCLIVLLIRLDSRLHTPMYFFLTNLSLVDVSYATSVVPQLLAHFLAEHKAIPFQSCAAQLFFSLALGGIEFVLLAVMAYDRYVAVCDALRYSAIMHGGLCARLAITSWVSGFISSPVQTAITFQLPMCRNKFIDHISCELLAVVRLACVDTSSNEVTIMVSSIVLLMTPFCLVLLSYIQIISTILKIQSREGRKKAFHTCASHLTVVALCYGVAIFTYIQPHSSPSVLQEKLFSVFYAILTPMLNPMIYSLRNKEVKGAWQKLLWKFSGLTSKLAT [OR2F1] | 181 ± 74 | – |
| MEPLNRTEVSEFFLKGFSGYPALEHLLFPLCSAMYLVTLLGNTAIMAVSVLDIHLHTPVYFFLGNLSTLDICYTPTFVPLMLVHLLSSRKTISFAVCAIQMCLSLSTGSTECLLLAITAYDRYLAICQPLRYHVLMSHRLCVLLMGAAWVLCLLKSVTEMVISMRLPFCGHHVVSHFTCKILAVLKLACGNTSVSEDFLLAGSILLLPVPLAFICLSYLLILATILRVPSAARCCKAFSTCLAHLAVVLLFYGTIIFMYLKPKSKEAHISDEVFTVLYAMVTTMLNPTIYSLRNKEVKEAARKVWGRSRASR [OR13J1] | 140 ± 33 | – |
| MNPENWTQVTSFVLLGFPSSHLIQFLVFLGLMVTYIVTATGKLLIIVLSWIDQRLHIQMYFFLRNFSFLELLLVTVVVPKMLVVILTGDHTISFVSCIIQSYLYFFLGTTDFFLLAVMSLDRYLAICRPLRYETLMNGHVCSQLVLASWLAGFLWVLCPTVLMASLPFCGPNGIDHFFRDSWPLLRLSCGDTHLLKLVAFMLSTLVLLGSLALTSVSYACILATVLRAPTAAERRKAFSTCASHLTVVVIIYGSSIFLYIRMSEAQSKLLNKGASVLSCIITPLLNPFIFTLRNDKVQQALREALGWPRLTAVMKLRVTSQRK [OR6T1] | 112 ± 19 | – |
| MPNFTDVTEFTLLGLTCRQELQVLFFVVFLAVYMITLLGNIGMIILISISPQLQSPMYFFLSHLSFADVCFSSNVTPKMLENLLSETKTISYVGCLVQCYFFIAVVHVEVYILAVMAFDRYMAGCNPLLYGSKMSRTVCVRLISVPYVYGFSVSLICTLWTYGLYFCGNFEINHFYCADPPLIQIACGRVHIKEITMIVIAGINFTYSLSVVLISYTLIVVAVLRMRSADGRRKAFSTCGSHLTAVSMFYGTPIFMYLRRPTEESVEQGKMVAVFYTTVIPMLNPMIYSLRNKDVKEAVNKAITKTYVRQ [OR5M9] | 133 ± 54 | – |
| MASPSNDSTAPVSEFLLICFPNFQSWQHWLSLPLSLLFLLAMGANTTLLITIQLEASLHQPLYYLLSLLSLLDIVLCLTVIPKVLAIFWFDLRSISFPACFLQMFIMNSFLTMESCTFMVMAYDRYVAICHPLRYPSIITDQFVARAVVFVIARNAFVSLPVPMLSARLRYCAGNIIKNCICSNLSVSKLSCDDITFNQLYQFVAGWTLLGSDLILIVISYSFILKVVLRIKAEGAVAKALSTCGSHFILILFFSTVLLVLVITNLARKRIPPDVPILLNILHHLIPPALNPIVYGVRTKEIKQGIQNLLKRL [OR56A4] | 419 ± 210 | – |
| MSNATLLTAFILTGLPHAPGLDAPLFGIFLVVYVLTVLGNLLILLVIRVDSHLHTPMYYFLTNLSFIDMWFSTVTVPKMLMTLVSPSGRTISFHSCVAQLYFFHFLGSTECFLYTVMSYDRYLAISYPLRYTNMMTGRSCALLATGTWLSGSLHSAVQTILTFHLPYCGPNQIQHYFCDAPPILKLACADTSANEMVIFVNIGLVASGCFVLIVLSYVSIVCSILRIRTSEGRHRAFQTCASHCIVVLCFFGPGLFIYLRPGSRDALHGVVAVFYTTLTPLFNPVVYTLRNKEVKKALLKLKNGSVFAQGE [OR10G7] | 315 ± 110 | – |
| MTNQTQMMEFLLVRFTENWVLLRLHALLFSLIYLTAVLMNLVIILLMILDHRLHMAMYFFLRHLSFLDLCLISATVPKSILNSVASTDSISFLGCVLQLFLVVLLAGSEIGILTAMSYDRYAAICCPLHCEAVMSRGLCVQLMALSWLNRGALGLLYTAGTFSLNFYGSDELHQFFCDVPALLKLTCSKEHAIISVSVAIGVCYAFSCLVCIVVSYVYIFSAVLRISQRQRQSKAFSNCVPHLIVVTVFLVTGAVAYLKPGSDAPSILDLLVSVFYSVAPPTLNPVIYCLKNKDIKSALSKVLWNVRSSGVMKR [OR14K1] | 155 ± 35 | – |
| MGDNITSIREFLLLGFPVGPRIQMLLFGLFSLFYVFTLLGNGTILGLISLDSRLHAPMYFFLSHLAVVDIAYACNTVPRMLVNLLHPAKPISFAGRMMQTFLFSTFAVTECLLLVVMSYDLYVAICHPLRYLAIMTWRVCITLAVTSWTTGVLLSLIHLVLLLPLPFCRPQKIYHFFCEILAVLKLACADTHINENMVLAGAISGLVGPLSTIVVSYMCILCAILQIQSREVQRKAFRTCFSHLCVIGLVYGTAIIMYVGPRYGNPKEQKKYLLLFHSLFNPMLNPLICSLRNSEVKNTLKRVLGVERAL [OR2A4] | 123 ± 3.7 | – |
| MANFTPVNGSSGNQSVRLVTSSSHNRYETVEMVFIATVTGSLSLVTVVGNILVMLSIKVNRQLQTVNNYFLFSLACADLIIGAFSMNLYTVYIIKGYWPLGAVVCDLWLALDYVVSNASVMNLLIISFDRYFCVTKPLTYPARRTTKMAGLMIAAAWVLSFVLWAPAILFWQFVVGKRTVPDNQCFIQFLSNPAVTFGTAIAAFYLPVVIMTVLYIHISLASRSRVHKHRPEGPKEKKAKTLAFLKSPLMKQSVKKPPPGEAAREELRNGKLEEAPPPALPPPPRPVADKDTSNESSSGSATQNTKERPATELSTTEATTPAMPAPPLQPRALNPASRWSKIQIVTKQTGNECVTAIEIVPATPAGMRPAANVARKFASIARNQVRKKRQMAARERKVTRTIFAILLAFILTWTPYNVMVLVNTFCQSCIPDTVWSIGYWLCYVNSTINPACYALCNATFKKTFRHLLLCQYRNIGTAR [CHRM4] | – | plasma membrane surface immunostaining intensity (GPCR class: A): 952 ± 190 |
| MVPHLLLLCLLPLVRATEPHEGRADEQSAEAALAVPNASHFFSWNNYTFSDWQNFVGRRRYGAESQNPTVKALLIVAYSFIIVFSLFGNVLVCHVIFKNQRMHSATSLFIVNLAVADIMITLLNTPFTLVRFVNSTWIFGKGMCHVSRFAQYCSLHVSALTLTAIAVDRHQVIMHPLKPRISITKGVIYIAVIWTMATFFSLPHAICQKLFTFKYSEDIVRSLCLPDFPEPADLFWKYLDLATFILLYILPLLIISVAYARVAKKLWLCNMIGDVTTEQYFALRRKKKKTIKMLMLVVVLFALCWFPLNCYVLLLSSKVIRTNNALYFAFHWFAMSSTCYNPFIYCWLNENFRIELKALLSMCQRPPKPQEDRPPSPVPSFRVAWTEKNDGQRAPLANNLLPTSQLQSGKTDLSSVEPIVTMS [GPR83] | – | plasma membrane surface immunostaining intensity (GPCR class: A): 490 ± 39 |
| MANITRMANHTGKLDFILMGLFRRSKHPALLSVVIFVVFLKALSGNAVLILLIHCDAHLHSPMYFFISQLSLMDMAYISVTVPKMLLDQVMGVNKVSAPECGMQMFLYLTLAGSEFFLLATMAYDRYVAICHPLRYPVLMNHRVCLFLASGCWFLGSVDGFMLTPITMSFPFCRSWEIHHFFCEVPAVTILSCSDTSLYETLMYLCCVLMLLIPVTIISSSYLLILLTVHRMNSAEGRKKAFATCSSHLTVVILFYGAAVYTYMLPSSYHTPEKDMMVSVFYTILTPVLNPLIYSLRNKDVMGALKKMLTVRFVL [OR2T5] | 121 ± 14 | – |
| MAGVVHVSLAALLLLPMAPAMHSDCIFKKEQAMCLEKIQRANELMGFNDSSPGCPGMWDNITCWKPAHVGEMVLVSCPELFRIFNPDQVWETETIGESDFGDSNSLDLSDMGVVSRNCTEDGWSEPFPHYFDACGFDEYESETGDQDYYYLSVKALYTVGYSTSLVTLTTAMVILCRFRKLHCTRNFIHMNLFVSFMLRAISVFIKDWILYAEQDSNHCFISTVECKAVMVFFHYCVVSNYFWLFIEGLYLFTLLVETFFPERRYFYWYTIIGWGTPTVCVTVWATLRLYFDDTGCWDMNDSTALWWVIKGPVVGSIMVNFVLFIGIIVILVQKLQSPDMGGNESSIYLRLARSTLLLIPLFGIHYTVFAFSPENVSKRERLVFELGLGSFQGFVVAVLYCFLNGEVQAEIKRKWRSWKVNRYFAVDFKHRHPSLASSGVNGGTQLSILSKSSSQIRMSGLPADNLAT [ADCYAP1R1] | – | plasma membrane surface immunostaining intensity (GPCR class: B): 6416 ± 29 |
| MEAANESSEGISFVLLGLTTSPGQQRPLFVLFLLLYVASLLGNGLIVAAIQASPALHAPMYFLLAHLSFADLCFASVTVPKMLANLLAHDHSISLAGCLTQMYFFFALGVTDSCLLAAMAYDCYVAIRHPLPYATRMSRAMCAALVGMAWLVSHVHSLLYILLMARLSFCASHQVPHFFCDHQPLLRLSCSDTHHIQLLIFTEGAAVVVTPFLLILASYGAIAAAVLQLPSASGRLRAVSTCGSHLAVVSLFYGTVIAVYFQATSRREAEWGRVATVMYTVVTPMLNPIIYSLWNRDVQGALRALLIGRRISASDS [OR1K1] | 223 ± 69 | – |
| MDVLSPGQGNNTTSPPAPFETGGNTTGISDVTVSYQVITSLLLGTLIFCAVLGNACVVAAIALERSLQNVANYLIGSLAVTDLMVSVLVLPMAALYQVLNKWTLGQVTCDLFIALDVLCCTSSILHLCAIALDRYWAITDPIDYVNKRTPRRAAALISLTWLIGFLISIPPMLGWRTPEDRSDPDACTISKDHGYTIYSTFGAFYIPLLLMLVLYGRIFRAARFRIRKTVKKVEKTGADTRHGASPAPQPKKSVNGESGSRNWRLGVESKAGGALCANGAVRQGDDGAALEVIEVHRVGNSKEHLPLPSEAGPTPCAPASFERKNERNAEAKRKMALARERKTVKTLGIIMGTFILCWLPFFIVALVLPFCESSCHMPTLLGAIINWLGYSNSLLNPVIYAYFNKDFQNAFKKIIKCKFCRQ [HTR1A] | – | plasma membrane surface immunostaining intensity (GPCR class: A): 5670 ± 440 |
| MFSPWKISMFLSVREDSVPTTASFSADMLNVTLQGPTLNGTFAQSKCPQVEWLGWLNTIQPPFLWVLFVLATLENIFVLSVFCLHKSSCTVAEIYLGNLAAADLILACGLPFWAITISNNFDWLFGETLCRVVNAIISMNLYSSICFLMLVSIDRYLALVKTMSMGRMRGVRWAKLYSLVIWGCTLLLSSPMLVFRTMKEYSDEGHNVTACVISYPSLIWEVFTNMLLNVVGFLLPLSVITFCTMQIMQVLRNNEMQKFKEIQTERRATVLVLVVLLLFIICWLPFQISTFLDTLHRLGILSSCQDERIIDVITQIASFMAYSNSCLNPLVYVIVGKRFRKKSWEVYQGVCQKGGCRSEPIQMENSMGTLRTSISVERQIHKLQDWAGSRQ [BDKRB2] | – | plasma membrane surface immunostaining intensity (GPCR class: A): 664 ± 47 |
| MTPLCLNCSVLPGDLYPGGARNPMACNGSAARGHFDPEDLNLTDEALRLKYLGPQQTELFMPICATYLLIFVVGAVGNGLTCLVILRHKAMRTPTNYYLFSLAVSDLLVLLVGLPLELYEMWHNYPFLLGVGGCYFRTLLFEMVCLASVLNVTALSVERYVAVVHPLQARSMVTRAHVRRVLGAVWGLAMLCSLPNTSLHGIRQLHVPCRGPVPDSAVCMLVRPRALYNMVVQTTALLFFCLPMAIMSVLYLLIGLRLRRERLLLMQEAKGRGSAAARSRYTCRLQQHDRGRRQVTKMLFVLVVVFGICWAPFHADRVMWSVVSQWTDGLHLAFQHVHVISGIFFYLGSAANPVLYSLMSSRFRETFQEALCLGACCHRLRPRHSSHSLSRMTTGSTLCDVGSLGSWVHPLAGNDGPEAQQETDPS [NMUR1] | – | plasma membrane surface immunostaining intensity (GPCR class: A): 2770 ± 700 |
| MGFLSPMHPCRPPTQRRMAAGNHSTVTEFILKGLTKRADLQLPLFLLFLGIYLVTIVGNLGMITLICLNSQLHTPMYYFLSNLSLMDLCYSSVITPKMLVNFVSEKNIISYAGCMSQLYFFLVFVIAECYMLTVMAYDRYVAICHPLLYNIIMSHHTCLLLVAVVYAIGLIGSTIETGLMLKLPYCEHLISHYFCDILPLMKLSCSSTYDVEMTVFFSAGFNIIVTSLTVLVSYTFILSSILGISTTEGRSKAFSTCSSHLAAVGMFYGSTAFMYLKPSTISSLTQENVASVFYTTVIPMLNPLIYSLRNKEVKAAVQKTLRGKLF [OR8A1] | 191 ± 82 | – |
